Experimental data taken from patent US20210380703A1 (RIGEL PHARMACEUTICALS, published 2021).
Numbering of substitutions follows the chain as printed.

B1: 374_E09 (antibody, V domains shown)
VH: EVQLLESGGGLVQPGGSLRLSCAASGFTFSDYSMNWVRQAPGKGLEWVSGINYNGGYKGYADSVKGRFTISRDNSKNTLYLQMNSLRAEDTAVYYCARSATWHDTHLDYWGQGTLVTVSS
VL: DIQMTQSPSSLSASVGDRVTITCRASQSIVTYLNWYQQKPGKAPKLVIYAATSRASGVPSRFSGSGSGTDFTLTISSLQPEDFATYYCQQSYDSPLTFGGGTKVEIK
notes: VH/VL only
B2: 374_E11 (antibody, V domains shown)
VH: B1 VH with D31S, S33G, G50N, K58T, G59S, T101N, H106A
VL: B1 VL
notes: VH/VL only
B3: 374_F01 (antibody, V domains shown)
VH: B1 VH with S30D, D31S, G50N, K58T, T101N, H106A
VL: B1 VL with V30L, T31S, L33V, A55H, D93E, S94N
notes: VH/VL only
B4: 374_F04 (antibody, V domains shown)
VH: B1 VH with D31S, S33G, G55S, G59S, T101N, H106A
VL: B1 VL with V30L, L33V, V47L, D93N
notes: VH/VL only
B5: 374_F10 (antibody, V domains shown)
VH: B1 VH with D31S, K58T, G59S, T101N, H106A
VL: B1 VL with V30L, T31S, S94N
notes: VH/VL only
B6: 374_F11 (antibody, V domains shown)
VH: B1 VH with S30D, D31S, G50N, K58T, T101N, H106A
VL: B1 VL with V30L, T31S, V47L, A51V, R54L, D93E
notes: VH/VL only
B7: 374_G04 (antibody, V domains shown)
VH: B1 VH with D31S, S49A, K58T, T101N, H106A
VL: B1 VL with V30L, R54L, S94N
notes: VH/VL only
B8: 374_G06 (antibody, V domains shown)
VH: B1 VH with D31S, S33G, N35H, S49A, G50S, K58T, G59S, T101N, H106A
VL: B1 VL with V30L, T31S, V47L, A51V, S94L
notes: VH/VL only
B9: 374_G07 (antibody, V domains shown)
VH: B1 VH with D31S, G55S, G59S, T101N, H106A
VL: B1 VL with V30I, T31S, V47L
notes: VH/VL only
B10: 374_H03 (antibody, V domains shown)
VH: B1 VH with D31S, S33G, G55S, G59S, T101N, H106A
VL: B1 VL with V30L, T31S, L33V
notes: VH/VL only
B11: 374_H04 (antibody, V domains shown)
VH: B1 VH with S30D, D31S, G55S, K58T, G59S, T101N, H106A
VL: B1 VL with V30L, V47L, S94N
notes: VH/VL only
B12: 374_H06 (antibody, V domains shown)
VH: B1 VH with D31S, S33G, G50N, K58T, T101N, H106A
VL: B1 VL with T31S, L33V, D93N, S94L
notes: VH/VL only
B13: 374_H07 (antibody, V domains shown)
VH: B1 VH with S30D, D31S, S33G, S49A, G50N, K58T, T101N, H106A
VL: B1 VL with V30L, V47L, D93E, S94T
notes: VH/VL only
B14: 374_H08 (antibody, V domains shown)
VH: B1 VH with S30D, D31S, K58T
VL: B1 VL with V30L, T31S, V47L, R54L, A55H, D93E, S94N
notes: VH/VL only

target: human ACVR2A (human, UniProt P27037 20-135, limits assumed); experiment: ELISA
Summary of the method: (§1)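 Monoclonal antibodies were first applied to human or mouse ACVR2A, alongside biotinylated goat anti-human kappa light chain (positive control) and human Fc (negative control); binding was then determined by ELISA.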
Note: test concentration or dose not given here.

Chain of human ACVR2A (P27037 20-135 limits assumed): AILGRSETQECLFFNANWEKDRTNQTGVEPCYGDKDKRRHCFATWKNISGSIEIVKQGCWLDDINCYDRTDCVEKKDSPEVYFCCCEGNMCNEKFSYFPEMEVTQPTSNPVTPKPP

Question: B1 was tested. Which optical density did it give?
Answer: 3.67 OD

Question: For B2, which optical density is on record?
Answer: 3.61 OD

Question: B3 was tested. Which optical density did it give?
Answer: 3.29 OD

Question: Which optical density does the source give for B4 here?
Answer: 3.58 OD

Question: For B5, which optical density is on record?
Answer: 3.21 OD

Question: With B6 as the binder, how does the optical density read?
Answer: 3.66 OD

Question: Which optical density does the source give for B7 here?
Answer: 2.1 OD

Question: B8 was tested. Which optical density did it give?
Answer: 3.26 OD

Question: With B9 as the binder, how does the optical density read?
Answer: 3.63 OD

Question: Which optical density does the source give for B10 here?
Answer: 3.27 OD

Question: B11 was tested. Which optical density did it give?
Answer: 3.28 OD

Question: With B12 as the binder, how does the optical density read?
Answer: 3.3 OD

Question: For B13, which optical density is on record?
Answer: 3.24 OD

Question: B14 was tested. Which optical density did it give?
Answer: 3.31 OD

target: mouse ACVR2A (mouse, UniProt P27038 20-135, limits assumed); experiment: ELISA
Summary of the method: as §1

Chain of mouse ACVR2A (P27038 20-135 limits assumed): as the sequence (P27037 20-135 limits assumed) above, with K20R, V73I counted along it

Question: B1 was tested. Which optical density did it give?
Answer: 3.58 OD

Question: B2 was tested. Which optical density did it give?
Answer: 3.59 OD

Question: With B3 as the binder, how does the optical density read?
Answer: 3.6 OD

Question: With B4 as the binder, how does the optical density read?
Answer: 3.65 OD

Question: B5 was tested. Which optical density did it give?
Answer: 3.45 OD

Question: Which optical density does the source give for B6 here?
Answer: 3.61 OD

Question: How did the optical density turn out when B7 was run?
Answer: 2.32 OD

Question: With B8 as the binder, how does the optical density read?
Answer: 3.42 OD

Question: B9 was tested. Which optical density did it give?
Answer: 3.72 OD

Question: For B10, which optical density is on record?
Answer: 3.27 OD

Question: How did the optical density turn out when B11 was run?
Answer: 3.31 OD

Question: For B12, which optical density is on record?
Answer: 3.26 OD

Question: B13 was tested. Which optical density did it give?
Answer: 3.25 OD

Question: How did the optical density turn out when B14 was run?
Answer: 3.27 OD

target: T1, biotinylated goat anti-human kappa light chain; experiment: ELISA; positive control
T1 construct: Positive control of the ELISA
Summary of the method: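 mAb binding by ELISA; antigens: hu ACVR2A, mu ACVR2A; pos ctrl biotinylated goat anti-hu kappa LC; neg ctrl hu Fc.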

Question: How did the optical density turn out when B1 was run?
Answer: 3.16 OD

Question: Which optical density does the source give for B2 here?
Answer: 3.34 OD

Question: With B3 as the binder, how does the optical density read?
Answer: 3.03 OD

Question: With B4 as the binder, how does the optical density read?
Answer: 3.23 OD

Question: How did the optical density turn out when B5 was run?
Answer: 3.28 OD

Question: For B6, which optical density is on record?
Answer: 3.15 OD

Question: For B7, which optical density is on record?
Answer: 3.02 OD

Question: B8 was tested. Which optical density did it give?
Answer: 3.29 OD

Question: How did the optical density turn out when B9 was run?
Answer: 3.26 OD

Question: For B10, which optical density is on record?
Answer: 3.06 OD

Question: With B11 as the binder, how does the optical density read?
Answer: 3.19 OD

Question: How did the optical density turn out when B12 was run?
Answer: 3.08 OD

Question: Which optical density does the source give for B13 here?
Answer: 2.97 OD

Question: B14 was tested. Which optical density did it give?
Answer: 3.09 OD
